According to the NTF2 design screens of Basanta et al. (2020):

Assay: protease stability score; higher = more stable; yeast display proteolysis, trypsin and chymotrypsin;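 further: relative to predicted unfolded state with 0 unfolded-like and 1 meaning tenfold more protease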

Sequence	protease stability score
DEKEELTRKLLELLLLAWSTGDEEVLMMLADPDVRITQGDKITHGRDELRREIEEIWRKFGADHIEVEPEDSRVQGDKVNNRTTLWLRINGRTIDFNVHVIIVIVNGVIHSMRFEIR	2.35
DEKEELVEYFWEVFLKSLRTGNWHEFVKMFDPDAKSHINGVHSIGRDHIATLILREHEEIRYTEIRERHIEVQGDKIHVHTEVDMFVGDKRIRTERHIHITIVNGRIKSMRVEIR	0.958
DEKEETIERLIRMLWHAWRTGDEDSLRNLFDPHAKLHVDGRDLVGMEMVYEDFHRQLNEWRINDLVIRTFRVQGDKIEIKGEIFGDINGRHTRHEVIIHIVVVDGRIKSLEVIND	1.66
DEKEEVLEKLDRLVMEAMETGDWELITKNFDPNTRITINGRELIGRAEWHRFLEEMRHSIKDYRIRSKREYDGRIEVDTESHFIVNIDGKRIEYETRTHVIMTKIDGKWLFTSVEVR	1.97
DEKEHELTRMIRMIETLLRTGDFEELEKLMDPDVRLDIDGKHLVGRHDLREFFLELGVKHTDTKEIHVIGDKAFLHTEIHVDGRTTKVIIIMHKINGRWIITSTHIRHH	1.47
DEKEHFAKWFIHVLIRHWYTGDEETTHRLADPNARYEIGDKELIGMDELFRHLEQLRVDSIDYRVEDIRFQGEKIHIHGKIRVEGVVNGQHFHLTFDLILHVEKINGRWHFREMQTR	1.25
DEKEHLLKLAIDILKHLHETGDETLAEELADPNTRVHYGDKHIHGRQRYIEHLHRERRRLGVDHSQIELHNWEVVDGRLHLDGKLTLLVGDKRIEFKVRIIMDKVNGRWILHSLEFH	0.608
DEKEKDFHHMLEDWRWATRTGDEDTLKDLMDPNAKVRYGDYEFHGREHVIQFYQQIRFHEIHVHHVRVIGNKLEADTRVRIEYNGRELSFETHLVLLKIDGKWVMKIHEID	2.13
DEKEKEFKEVWKRILEILLTGDEEELTRMADPHARLDVNGVERHGREEMSKYIRHWHEKVKNARFWIHSIHVVGEKVVIDTEIQIGDKRIRYIVHFIVVDGRIKEIHVHEEII	2.12
DEKEKESEDLAEIILKLWATGDEEIFEHLLDPNVWMIDEDEVFHGMEKVSEFLLRLREKLGVDHFRVHHIEIQGDKVHMDIRLEVNGKILKTHIRVIIINGRIHTVEIRIH	2.37
DEKEKIVHEMFKLWVDLLLTGDEEILRRMLDPNTRLDFNGVDVIGMERIADHLRHWRFHDIRIEHMRVYNGRVEVETRLDGYWDGRRIRTTSHILLVVVGDKIKEIHIKID	2.38
DEKEKLKQLARKFHKAMQTGDEDELKKNVDENVRADYGDRRYHGSEELAKWLREMKTKVDHLSMTIKDIRVKGDRAEIELEMTFDHNGRQETRQFTLQAQVHNGSLKIVQIRQS	1.47
DEKEKVVRIAQEIINTIIHTGDERILEEFIDPNVRFYFNGQEFHGRELMSEIEKKHRDRFKNLRIFVEDTHVEVYGEWLRIKVHLRLEIGDKRHELHLDIIALKVNGRWLNKSAELRVE	1.64
DEKERESEEFIRRFISVYETGDWKTMFELADPHTRMIDIVNGRDIEIIGREAIRHIFEERMRLLGIKHFHIDHSSRQGNKYHQKVTIRVDGQEIEAHVHVIVVDGVLKQIEVRSK	1.06
DEKERKLLEIARLLIESFLTGDWKTFHEMLDPHVRFEVGDKEAHGWEEALRVWDHLKEEMRITDLDIHHYTVQGDKVHIDSRLHGEIDGKRVTFRTRIVVIVVNGRVKQVSYKIT	1.23
DEKERLADEILEDIRKSVHTGDWDEYLRLLDPNVRTVINGKTVHGREEIKELMERLGIDHHHLRVDHWEIIDGKVHVEIEVTLQIGDKHFSRSSHILIMKFNGQWIVHTFRLH	1.73
DEKERLAHEFHERFLEALMTGDEHHIEEMFDPNARTRQGDKTFHGRERSLHLISEWWRQIDVVRDIHIHEIKFQGDFLSFHLMIDGEINGRRDELVVHVESRKIDGKWFLHSVTYT	0.497
DEKHEFARRYYELEKKYLKTGDEEEWLKYVDPHVRVHVGDKDLVGMELAEEQWREIRYHHIDDKDMRIQGDKLHVKGRVDGTIGDKRHRVDMEVHIEIIDGRFKRIEVRIK	0.76
DEKHEFVRRRIEEWLEALRTGDEDTLHRLADPNVKMNINGVERHGRESMLSLFEEFGVNHFHIRDVKIQGEKSFIDGEIRYGDKIHRVQMEIQVIDGVLESHKLRVH	1.13
DEKHEIMREALKEFITEQRTGNEDRIKQLMDPNVRIFVGDKEFHGREEVMRILKILRHELGVDNIFIILRSMHIVDGRVHLDVELHINGRIFKSELVILKIDGQWLIRSIHIE	1.66
DEKHELNEKALSEFLKIVHTGDERLVREMMDPHVRVHINGRDHHGMDDAVELMKFIKNMTVILTDKKIQGDKLEVHGIWIYNGVREETEIISEKVDGRWVIREVRHD	1.07
DEKHELTKRLVELFLHAMHTGNEDLLHEYMDPNVKLVVNGQEHHGRELANSVIRRMIEELRLKDSKIKDIEFQGEKVHLDVHLHFRQGDKHITLDARIILLKVDGRWVIESLIFH	1.76
DEKKAKEAAHRLLEAMVTGDPRKLNENADEDVQVEYGDKSYTGREKLNEWAHEFQKRVDHVRIESIHQRGDTATVKVRVEHNGETDTFVLIVEAHNGRAKRIRQETR	1.1
DEKKEDIDRMVKEIHTIFATGDEDRFKELLDPNVRVDVDGKKRHGREDATEHFRKWVLTLGIDHSRVHSVHTIDGVVFLEIRFDVNGQTIKVRVLAVKVDGQWLIEEVEIRWK	2.38
DEKNHLWDEISEIFVQNWVTGDEDSLRHMADPNVRTDINGVELHGMEETNRFIIEELKHARSRVHLEHRDAVNGRIHLQTELYSNVDGQEIRYKTRIILIVVNGRLKEIKFIQH	0.581

Sequence	protease stability score
DEKQDLWRHLLEQFFRWYQTGDEDLLFKYADPHVRFRQGDKEHHGREEMIRMLREHRHHFGADHFKVETMEIQGDKATFVMHDHVNGVDIEIRVHVVVIDGRIRSFKFERH	1.34
DEKQEFIERIAKELLDSWLTGDEEHLRNMMDPHVRTDVNGREFHGREETIKAMQILGVDHLEIKDYRVINGRIHANSRMWIGDKQIETHLILRVVNGRVKEIKIEIR	1.97
DEKQRDIEEMARRFVEIFHTGDEENYLELADPDMRLDVGDKHYHGREDVHKWLHEELRRIKNATIRIKHIHVQGDKVHLEITIEIGDKHRKSHIHLQIVDGVIKRIEIRWS	1.09
DEKQVLELIRDVMKHVQNGNQEEVKKHGKPSVEVILFNERYTGPEALVRLAEFAQKLGAQFEYKETRHEGNKVKTKVEVTFGGTTVRYEVEVEAEGGKVVKWEVRASDEFDERVKKS	1.29
DEKREESERALNHLFKSMLTGDEEDVRKLADPHAKFIINGRSDIGRESVSHHWHRLWRELGVKHLDVRSFRVYDGRVDSKTRVEIGDKEHEMEVYIVKVNGRWHIEELEFR	-0.12
DEKRKEMEQLARIIIHLWETGDEEKWREYADPNTRLDVDGRNSHGMHNTLEVLRRRLEELGFDHVEMEIKHITVIGDKAQINGKVHLYWNGKTIDVPSEIIIVIINGRLHSIELRHE	1.44
DEKRKLAEEIMRLLLHAYKTGDEELIHKLADPDTRVIINGVDLHGWEEMNRHLEEIIRQFDHWDLKIRDFRIQGDKYHIHGHLIHIQGDKHIRHDVNFHIVFVNGRQTSNHIDIH	1.41
DEKRKVEERLLELIIEIFRTGDWEWYSELADPNVRVHQGEYHKHGREQASKHLLDELRHLGIKHIDERSYDVIDGQVYWHVRIEVGDKERQMHIRVRIVNGVLQHVHIEIH	1.17
DEKSDIYHQALRLWIDTMVTGDENLYERLLDPHVRVEIGDKEIHGRERVSEFFKRFAEHLGVDHVELHDFRYQGDYVRLRISIEYNGQHLDTDLIITKINGRWYIHSEKYK	1.26
DEKSEHILELLRLMLELLVTGDWSMLRKLVDPNARMYYGDKEFHGWEDMVKFIKILLERIDHVEIRLHNSDVQGEKAKSDGTLIERVNGQEVRFDSHIINIVVNGRAKEVRIEVH	1.22
DEKTEEIERFFKKWVEALRTGDWKTLMELLDPNARFDINGREIIGREIYVKILKEELKHFGVTRIHNEVEIKHSDEQGNKLNLDGKLIINWDGKNDETRLILYVLKVDGRWIIEEVRIR	1.44
DEKTEHERELSERLLKAILTGDEDLFKELADPNVRIISEIDGRKDESHGWTAWHRIMQSLGFNVMRIDHHELINGVQYVESTLDINGVRRKTHLIIRIINGKVKEVRFSID	1.88
DEKTEISEELLKIFVDLLQTGDEDIFQDMMDPRAQVHVNGKRIHGREHIIHWFREAHRHLGVKHTHIHRVEIQGEKVYIDGRLHYNGRDFNTHLIFDVINGRVKSMELRQH	1.09
DEKTEISEFALELFKESYDTGDEHTINRLADPHYRVVIGDKDLIGMEWLEHVIRHHKERVDHYRDVTVKDIKVIGNKVIADIRSHVHVDGQERDLDIDLVVFKINGRWRIKMIKID	1.15
DEKTEIVSRIMIVFFHALLTGDWETLKKNADPHVKLEAEGRKSHGMEELVRWIHEEIKRIPGIRFELKRYDVQGDKVEIEGRVRINGVEFELIIESVIVDGKLKSIREEWR	1.41
DEKTEKEQRWFEEILHAILTGDEEFLLRNADPNTRSHFNGRDVHGMELLSEIWTKHVEDLGFDHAHIRSVKVFDGRFILNMQIHVNGVELDVHLIYDVVDGVVKRVIVETHKH	0.442
DEKTEQSREIIELLLKALQTGDEDTLTELLDPHVKIHIGDKDYHGREEVSRLLQEFWDRFKNARIEIHDYRDINGRVHVDLRHVVGDKTYTSKWNILKVNGRWYIEQIHVH	2.07
DEKTKEVEHLTEYLREVWETGDFESLHEMMDPHVRVDIGDKHVHGREAVAHHFRKHLENWGVTRFRIEFHVRDVRDINGVVHLDTELRILFDGVLITMRTRFIIEKINGRWVFREVIVR	2.63
DEKYKRVEQAVRIYLELISTGDEEMISHYVDPNVQAEVGDYEHHGMEEFIKVVSRVDYLEHSEWKDWRYVDGRIEIEGHLYGKINGKRDVLDIRIIASKVNGKWRLHKVTIK	1.41
DELAEYAKEVIERIDHSITTGDERSVKRLLDPDVKLLIGDKELHGREDWEEWMKRIDHVSVRDSRIKEVKVYDGRLRIDGHKRMYYFNENEEREHTTRVVIILLKIDGRWVMHSVHFI	1.4
DELDDITEHLLHRFVDSLITGDEDLLEKYADPNAKLIIEIGDKRIERHGMHRFYELLLRFKNVKLDVKEIHVQGDKATIESTLQYGDKKHDTRLEVEFYDGRLKIIRWEIR	2.25
DELDEELHKLFEKYLRSHLTGDFHSLERLLDPNARLIWIVDGKMINIHGREDISRFLREWEEEARHHHHELKEVDTQGNYFHSRMHEDGHINGVRRKIHVTHNIVMIDGKLESITHIII	1.08
DELDEFREYWIRYVEEVFRTGDFEKHLSLMDPNARVLVDGKELHGREFLEVHMRRIKNATVRDVHHHDMEIQGDKVTLDVDVHVNVNGRDVDKHVLIISEKVNGRWISRSLEVR	0.628
DELDEILVRIAEMVVEIWETGDWEWLEHLLDPHVRLQIGDKEVHGREAIREMIHELLNKLPNIRSHIRLREVRYYNGKAHFNTELRLHINGRDLRSRVRYEILVVDGRVRSMHVEIR	1.09
DELDEQVEELARDIIRNWHTGDEERWEHLADPHVRVTIDGRLHIGREEAMKMLRHWLKRIDHITVNIRRIHVFNGRSEVHSELTMHVGDKNIHHHEIINIVIVDGRIHNQEIHLK	1.39
